Patent US20230192839A1, “ANTIBODIES HAVING CONDITIONAL AFFINITY AND METHODS OF USE THEREOF” (PFIZER INC., priority 2017, published 2023)

Key:
human CD33 = assay: Biacore SPR binding kinetics of anti-CD33 scFv-Fc clones with or without 10 µM MTX
Outline: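 Kinetics by SPR at 37° C in 10 mM Hepes pH 7.4, 150 mM NaCl, 0.05% Tween-20, with or without 10 µM MTX. Double-referenced data fit globally to Langmuir with mass transport; KD = koff/kon. Where binding was too weak for kinetics, KD or KD limit estimated from response at highest analyte concentration or instrument detection limit.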

MV4-11 cells [1] = assay: Flow cytometry analysis of MTX-dependent CAR T cell activation (CD69) and proliferation (CellTrace); type: cell-based, human; conditions: 100 µM MTX vs 0 µM MTX, with target cells, FIG. 8
Protocol: The anti-CD33 clone used in this example was P02_D09. CAR T cells containing this clone were generated in duplicate from PBMC cells from two different human donors. The target cell line used in this assay was MV4-11, as described in Example 5.
To assess activation of the conditional CAR T cells described above, in vitro cytotoxicity assays were carried out in 24-well plates by co-culturing 250,000 CAR T cells, with or without 250,000 MV4-11 cells. In addition, each of the co-cultures contained either 100 µM MTX or 0 µM MTX. In all conditions, 1 mM leucovorin was supplemented to circumvent MTX toxicity. Cells were collected after 24 hours of co-culture, labeled with fluorophore-conjugated antibody to CD69 (Biolegend) and analyzed by flow cytometry (BD LSR II). Activation was quantified via detection of the early activation marker, CD69.
To assess proliferative ability of the CAR T cells described above, the cells were prelabelled with the fluorescent intracellular dye, CellTrace Deep Red (Invitrogen), before co-culturing as described immediately above for the CAR T cell activation assay. The co-cultures were incubated for 7 days at 37 C with 5% CO2. On day 7, cells were collected and analyzed via flow cytometry. Dilution of the CellTrace dye (leftward shift of peaks in the histogram) was interpreted as T cell proliferation.

MV4-11 target cells = assay: Proliferation of CD33-specific conditional CAR T cells after CAR or TCR stimulation, cell count by flow cytometry; type: cell-based, human; conditions: 100 µM MTX vs no MTX, 7 days, FIG. 7
Protocol: The example examines the proliferative capabilities of conditional CAR T cells containing an anti-CD33 antibody having conditional affinity after stimulation of the CAR T cell via either the CAR T cell’s i) CAR or ii) TCR. In addition, these were examined in both the presence and absence of methotrexate (MTX).
The anti-CD33 clone used in this example was P02_D09. In addition, a tool T cell was prepared as described in Example 4, as were untransduced T cells. T cells from one PBMC donor were used for this experiment.
The target cell line used in this assay was MV4-11, as described in Example 5.
The assays were carried out in 96-well plates by culturing 100,000 T cells with various other reagents (depending on the assay), for each of the different T cells described above. In addition, each of the co-cultures contained either 100 µM MTX or 0 µM MTX. In both conditions, 1 mM leucovorin was supplemented to circumvent MTX toxicity. The T cells were stimulated by CAR or TCR as in Example 6. Cultures were maintained in a final volume of 100 ul of RPMI 1640 medium for 7 days at 37 C with 5% CO2. On day 7, cells were collected and counted via flow cytometry (BD LSR II) using 123Count eBeads (Thermo Fisher Scientific).

MV4-11 cells [2] = assay: Sequential rounds of in vitro cytotoxicity assays with changing MTX concentration (reversible inhibition); type: cell-based, human; conditions: Round 0-1 no MTX, then 100 µM MTX at Round 1-2 and Round 2-3; FIGS. 9A and 9B
Protocol: The anti-CD33 clones tested in this example were: P03_A01, P07_C04, and P02_D09. In addition, a tool T cell was prepared as described in Example 4, as were untransduced T cells. Also, each of the different conditional CAR T cells described above was generated in triplicate from PBMC cells from three different human donors. The target cell line used in this assay was MV4-11; these cells were transduced to stably express GFP and firefly luciferase, as described in Example 5.
This experiment involved a series of in vitro cytotoxicity assays, in which co-cultures of T cells and MV4-11 target cells were incubated together for multiple rounds of sequential cytotoxicity assays, in which the MTX concentration changed at different rounds of the assays. In vitro cytotoxicity assays were carried out in 24-well plates by co-culturing 200,000 T cells with 200,000 MV4-11 cells, for each different T cells described above. In addition, each of the co-cultures contained either 100 µM MTX or 0 µM MTX at different times, as indicated by the schematics in FIGS. 9A and 9C. In both conditions, 1 mM leucovorin was supplemented to circumvent MTX toxicity. For each round of the assay, co-cultures were maintained in a final volume of 500 µl of RPMI 1640 medium at 37 C with 5% CO2 for 48 hours. At the end of each round, cells were spun down (250 × g, 10 minutes), supernatant was removed, and fresh media containing fresh MV4-11 cells, leucovorin, and optionally MTX were added according to the schematics shown in FIGS. 9A and 9C. Target cell killing was assessed and plotted as described in Example 4.
In comparing the different panels of FIGS. 9A-9D, note that the schematics shown in FIGS. 9A and 9C indicate the MTX concentration in the co-culture at the start of the assay for a given round, whereas the results from that assay are shown the next round number in FIGS. 9B and 9D, respectively. […]

[3] = CD33, 0 µM MTX, 37° C., pH 7.4, scFv-Fc

B1: P02_D09: anti-CD33 clone with conditional affinity; VH SEQ ID NO: 35, VL SEQ ID NO: 36; also as scFv in CAR (antibody, V domains shown)
VH: QVQLVESGGGLVQAGGSLRLSCAASRRSSRSWAMHWVRQAPGKGLEWVAVISYDGRLKYYADSVKGRFTISRDNAEYLVYLQMNSLRAEDTAVYYCAAEEGDGGFFDYWGQGTLVTVSS
VL: QSVLTQPPSASGTPGQRVTISCSGSSSNIGSNYVNWYQQLPGTAPKLLIYRNNERPSGVPDRFSGSKSGTSASLAISGLRSEDEADYYCAAWDGSLSGRGVFGTGTKLTVL
modifications: Synthetic Antibody
notes: also as scFv in CAR
Human CD33; 10 µM MTX vs 0 µM MTX
  affinity for CD33 in the presence of MTX as compared to absence (in words): significantly greater affinity toward CD33 (i.e. lower KD) in the absence of MTX than in the presence of MTX
Human CD33; [3]
  koff, kinetics toward antigen with 0 µM MTX: 0.018 s⁻¹
  kon, kinetics toward antigen with 0 µM MTX: 40000 M⁻¹ s⁻¹
Human CD33; CD33, 10 µM MTX, 37° C., pH 7.4, koff/kon, or estimated from binding response / limit of detection for weak interactions, read-out: KD, kinetics toward antigen with 10 µM MTX
  Kd: > 9.29 µM
MV4-11 cells [1]; 24 hours
  activation (CD69) in the presence of MTX: dramatically reduced
MV4-11 cells [1]; 7 days
  proliferation (CellTrace dilution) in the presence of MTX: dramatically reduced
MV4-11 target cells; CAR stimulation (CD33)
  proliferative ability, CAR stimulation, presence of MTX: dramatically diminished
MV4-11 target cells; TCR stimulation (CD3/CD28)
  proliferation, TCR stimulation, presence of MTX: not affected by MTX
MV4-11 cells [2]
  target cell killing when MTX is added to active CAR T cells ("on" to "off"): quick inhibition rates
